Where a name gives a salt, the structure may show the parent alone. Read-outs that look alike come from different tables or passages of the source. One block for each molecule: values may come before it. Square brackets hold non-standard residues; d marks the D form. Ends that are not written are not given here. pY = N[C@@H](Cc1ccc(OP(=O)(O)O)cc1)C(=O)O
Key:
[1] = target: T1, DLAR D1 (Drosophila melanogaster, UniProt P16621); test: PNC binding by fluorescence quenching, DLAR D1
T1 construct: DLAR 1448-1746; His tag (pET-15b or pET-22b); made in house; host or cells: E. coli BL21(DE3)
T1 sequence (P16621 1448-1746): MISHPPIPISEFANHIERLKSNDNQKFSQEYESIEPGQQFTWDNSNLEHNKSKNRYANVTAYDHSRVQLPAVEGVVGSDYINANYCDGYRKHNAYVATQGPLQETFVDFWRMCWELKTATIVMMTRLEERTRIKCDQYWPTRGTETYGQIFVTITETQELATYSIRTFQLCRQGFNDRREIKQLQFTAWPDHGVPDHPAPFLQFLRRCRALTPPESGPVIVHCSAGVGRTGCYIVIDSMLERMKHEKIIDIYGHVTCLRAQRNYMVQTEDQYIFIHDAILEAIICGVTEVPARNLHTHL
Method: (§1) 5.0 µM of recombinant protein was titrated with increasing concentrations of PNC (Sigma-Aldrich) in 25 mM citrate buffer pH 6.5, 100 mM NaCl and 2 mM DTT. The closing of the WPD loop leads to the quenching of the intrinsic tryptophan fluorescence. Fluorescence quenching was monitored at 350 nm (emission maximum) for recombinant PTP domains and the dissociation constants were calculated by fitting the data to a hyperbolic equation of ligand binding using the nonlinear regression modules of Sigma Plot software (Systat Software Inc.).
(§2) To evaluate the differences in the phosphotyrosine binding pockets of the two domains of DLAR and PTP99A, a small molecule probe para-Nitrocatecholsulfate (2-hydroxy-5-nitrophenyl sulfate; PNC) was used. PNC acts as a small molecule competitive inhibitor of the PTPs as it mimics the phosphotyrosine residue. PNC binding was evaluated by monitoring the fluorescence quenching of the tryptophan residues in the WPD loop. […] PNC binding to the DLAR D1D2 construct fitted well to the independent ligand binding model for two non-interacting sites.

[2] = target: T2, DLAR D2 (Drosophila melanogaster, UniProt P16621); test: PNC binding by fluorescence quenching, DLAR D2; conditions: 5.0 µM protein, 25 mM citrate pH 6.5; fluorescence quenching 350 nm; single site model
T2 construct: DLAR 1728-2029; His tag (pET-15b or pET-22b); made in house; host or cells: E. coli BL21(DE3)
T2 sequence (P16621 1728-2029): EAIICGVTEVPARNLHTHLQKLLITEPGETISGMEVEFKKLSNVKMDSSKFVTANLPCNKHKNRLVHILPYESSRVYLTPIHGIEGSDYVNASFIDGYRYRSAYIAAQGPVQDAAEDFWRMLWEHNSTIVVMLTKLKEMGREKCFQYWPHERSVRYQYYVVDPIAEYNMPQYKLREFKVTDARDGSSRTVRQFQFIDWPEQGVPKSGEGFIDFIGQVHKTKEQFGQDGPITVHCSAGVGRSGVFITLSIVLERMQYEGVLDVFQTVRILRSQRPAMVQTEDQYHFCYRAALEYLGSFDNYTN
Method: as §1, §2

[3] = target: T3, DLAR D1D2 (Drosophila melanogaster, UniProt P16621); test: PNC binding by fluorescence quenching, DLAR D1D2; conditions: 5.0 µM protein, 25 mM citrate pH 6.5, fluorescence quenching 350 nm, independent two site model
T3 construct: DLAR 1448-2029; His tag (pET-15b or pET-22b); made in house; host or cells: E. coli BL21(DE3)
T3 sequence (P16621 1448-2029): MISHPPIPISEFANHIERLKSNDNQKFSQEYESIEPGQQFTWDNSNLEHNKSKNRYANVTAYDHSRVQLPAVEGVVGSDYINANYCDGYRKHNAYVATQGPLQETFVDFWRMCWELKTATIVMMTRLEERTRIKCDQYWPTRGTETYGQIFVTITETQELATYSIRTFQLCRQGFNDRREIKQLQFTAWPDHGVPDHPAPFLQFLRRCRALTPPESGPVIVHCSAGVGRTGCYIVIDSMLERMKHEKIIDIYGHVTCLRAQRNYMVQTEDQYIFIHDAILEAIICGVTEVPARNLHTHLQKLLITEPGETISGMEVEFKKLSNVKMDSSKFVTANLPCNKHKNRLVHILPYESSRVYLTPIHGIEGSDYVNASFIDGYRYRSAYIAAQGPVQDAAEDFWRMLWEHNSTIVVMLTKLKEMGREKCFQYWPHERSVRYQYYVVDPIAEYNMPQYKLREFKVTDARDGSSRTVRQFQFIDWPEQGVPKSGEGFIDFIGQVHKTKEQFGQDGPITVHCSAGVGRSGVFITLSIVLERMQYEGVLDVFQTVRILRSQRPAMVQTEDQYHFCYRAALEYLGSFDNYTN
Method: as §1, §2

[4] = target: T4, PTP99A D2 (Drosophila melanogaster, UniProt P35832); test: PNC binding by fluorescence quenching, PTP99A D2
T4 sequence (P35832 740-1050): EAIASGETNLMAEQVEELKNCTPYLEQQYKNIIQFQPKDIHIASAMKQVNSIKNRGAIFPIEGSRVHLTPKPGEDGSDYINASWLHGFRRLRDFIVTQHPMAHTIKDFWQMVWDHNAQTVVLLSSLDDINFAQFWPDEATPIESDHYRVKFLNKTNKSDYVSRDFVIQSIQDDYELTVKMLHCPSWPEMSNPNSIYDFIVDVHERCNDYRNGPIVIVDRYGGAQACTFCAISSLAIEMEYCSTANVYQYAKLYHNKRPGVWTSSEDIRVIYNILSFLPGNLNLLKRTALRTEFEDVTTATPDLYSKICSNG
Method: as §1, §2

[5] = target: T5, PTP99A D1D2 (Drosophila melanogaster, UniProt P35832); test: PNC binding by fluorescence quenching, PTP99A D1D2; conditions: 5.0 µM protein, 25 mM citrate pH 6.5; fluorescence quenching 350 nm; independent two site model; read-out: Kd1
T5 sequence (P35832 450-1050): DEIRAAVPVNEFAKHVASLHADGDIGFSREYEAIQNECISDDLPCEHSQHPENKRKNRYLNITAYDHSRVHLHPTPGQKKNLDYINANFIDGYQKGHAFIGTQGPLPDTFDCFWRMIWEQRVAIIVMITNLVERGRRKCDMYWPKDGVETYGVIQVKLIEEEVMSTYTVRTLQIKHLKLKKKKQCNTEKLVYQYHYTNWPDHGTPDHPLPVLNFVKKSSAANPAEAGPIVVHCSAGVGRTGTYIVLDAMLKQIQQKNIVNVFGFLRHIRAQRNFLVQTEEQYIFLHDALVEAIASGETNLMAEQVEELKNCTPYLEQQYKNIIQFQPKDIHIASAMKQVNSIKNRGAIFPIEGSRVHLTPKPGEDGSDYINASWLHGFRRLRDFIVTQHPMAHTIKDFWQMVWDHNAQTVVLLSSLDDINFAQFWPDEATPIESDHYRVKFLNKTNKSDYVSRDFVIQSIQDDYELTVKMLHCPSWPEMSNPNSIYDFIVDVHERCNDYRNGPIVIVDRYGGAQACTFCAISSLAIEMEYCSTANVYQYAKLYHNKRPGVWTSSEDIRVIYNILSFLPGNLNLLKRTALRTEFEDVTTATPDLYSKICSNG
Method: as §1, §2

[6] = target: T6, PTP99A D1 (Drosophila melanogaster, UniProt P35832); test: PNC binding by fluorescence quenching, PTP99A D1; design: PTP99A 450-756; His tag (pET-15b or pET-22b); made in house; host or cells: E. coli BL21(DE3)
T6 sequence (P35832 450-756): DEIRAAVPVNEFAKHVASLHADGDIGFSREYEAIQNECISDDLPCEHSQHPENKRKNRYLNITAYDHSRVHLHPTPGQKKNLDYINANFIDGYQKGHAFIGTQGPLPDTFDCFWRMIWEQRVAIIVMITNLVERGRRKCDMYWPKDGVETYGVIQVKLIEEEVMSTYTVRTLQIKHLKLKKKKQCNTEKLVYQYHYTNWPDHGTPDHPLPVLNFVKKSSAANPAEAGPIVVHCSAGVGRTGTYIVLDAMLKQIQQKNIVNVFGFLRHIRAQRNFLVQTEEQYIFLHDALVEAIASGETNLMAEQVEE
Method: as §1, §2

[7] = target: DLAR D1 (membrane-proximal PTP domain of DLAR) (Drosophila melanogaster); test: SPR; Biacore-2000; DLAR PTP domains immobilised on CM5 chips by amine coupling; peptides as analyte at 50-700 µM; 25°C; 10 mM HEPES pH 8.0, 150 mM NaCl, 10 mM DTT, 3 mM EDTA; 5 µL/min; two independent sites fit for the double domain constructs, single-site fit for DLAR D1 and DLAR D2
[8] = target: DLAR D1D2 (tandem PTP domains of Drosophila Leukocyte antigen Related) (Drosophila melanogaster); test: as above
[9] = target: DLAR D1D2HSS (Cys to Ser mutation in the D2 domain) (Drosophila melanogaster); test: as above
[10] = target: DLAR D1HSS D2 (Cys to Ser mutation in the D1 domain) (Drosophila melanogaster); test: as above
[11] = target: DLAR D2 (membrane-distal PTP domain of DLAR) (Drosophila melanogaster); test: as above
[12] = 5.0 µM protein, 25 mM citrate pH 6.5, fluorescence quenching 350 nm, single site model

Molecule: O=[N+]([O-])c1ccc(O)c(OS(=O)(=O)O)c1 [PNC, 2-hydroxy-5-nitrophenyl sulfate]
Kd ([1]; 5.0 µM protein, 25 mM citrate buffer pH 6.5, 100 mM NaCl, 2 mM DTT, tryptophan fluorescence quenching 350 nm, single site model): 235 µM
relative PNC binding ([1]; two PTP domains of DLAR (D1 and D2) compared, fluorescence quenching): comparable affinities
Kd [2]: 214 µM
Kd ([3]; read-out: Kd1): 160 µM
Kd ([3]; read-out: Kd2): 173 µM
Kd [4, 12]: 716 µM
relative PNC binding ([4]; D2 domain of PTP99A compared to the other PTP domains, fluorescence quenching): much more poorly
Kd [5]: 94.8 µM
Kd [6, 12]: 153 µM
relative PNC binding ([6]; D1 domain of PTP99A alone, fluorescence quenching): four times more favorable

Kd [7]: 94.6 µM
koff [7]: 0.00176 s⁻¹
kon [7]: 18.6 M⁻¹ s⁻¹
KD, first binding site [8]: 313 µM
KD, second binding site [8]: 2.02 µM
ka, first binding site [8]: 32.6 M⁻¹ s⁻¹
ka, second binding site [8]: 16500 M⁻¹ s⁻¹
kd, first binding site [8]: 0.0102 s⁻¹
kd, second binding site [8]: 0.0333 s⁻¹
KD, first binding site [9]: 296 µM
KD, second binding site [9]: 9.43 µM
ka, first binding site [9]: 51.7 M⁻¹ s⁻¹
ka, second binding site [9]: 1.37 M⁻¹ s⁻¹
kd, first binding site [9]: 0.0153 s⁻¹
kd, second binding site [9]: 1.3e-05 s⁻¹
KD, first binding site [10]: 87.5 µM
KD, second binding site [10]: 1.87 µM
ka, first binding site [10]: 74.7 M⁻¹ s⁻¹
ka, second binding site [10]: 28800 M⁻¹ s⁻¹
kd, first binding site [10]: 0.00654 s⁻¹
kd, second binding site [10]: 0.054 s⁻¹
Kd [11]: 104 µM
koff [11]: 0.00552 s⁻¹
kon [11]: 52.8 M⁻¹ s⁻¹
B1: Cuticle Peptide TAEPD(pY)GALYE (peptide)
peptide: TAEPD[pY]GALYE
